These results are taken from US20210009671A1.

For this test, the target named is Recombinant human TNFα (R&D Systems) (human) (UniProt P01375).
Sequence of Recombinant human TNFα (R&D Systems) (human) (P01375 77-233 limits assumed): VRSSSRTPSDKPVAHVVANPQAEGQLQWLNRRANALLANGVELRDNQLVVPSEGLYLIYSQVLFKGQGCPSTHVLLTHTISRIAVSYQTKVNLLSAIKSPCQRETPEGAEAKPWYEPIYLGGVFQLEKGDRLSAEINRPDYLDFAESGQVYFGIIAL

In the case of etanercept (Fc fusion), the IC50, TNFα-induced Caspase 3 activity in U937 cells came out at 144 pM.
